Article doi:10.1101/2025.05.01.651538

Target: wild-type unmodified 147bp nucleosome (nucleosome core particle, human histones)
Test: EMSA
Conditions: chain shown with the change; 0-32 µM KDM5A^MutR titrated against 147bp nucleosome

B1: KDM5A^CAT (KDM5A 1–801, minimal catalytically active construct), P29375 R210A; R217A; R219A; R220A; R232A; R264A; R265A; R266A; R271A; R280A; R282A (protein)
chain: MAGVGPGGYAAEFVPPPECPVFEPSWEEFTDPLSFIGRIRPLAEKTGICKIRPPKDWQPPFACEVKSFRFTPRVQRLNELEAMTRVRLDFLDQLAKFWELQGSTLKIPVVERKILDLYALSKIVASKGGFEMVTKEKKWSKVGSRLGYLPGKGTGSLLKSHYERILYPYELFQSGVSLMGVQMPNLDLKEKVEPEVLSTDTQTSPEPGTAMNILPKATAAVKTQSESGDVSANTELKKLQIFGAGPKVVGLAMGTKDKEDEVTAAAKVTNASDAFNMQMAQAKGTLSVNFVDLYVCMFCGRGNNEDKLLLCDGCDDSYHTFCLIPPLPDVPKGDWRCPKCVAEECSKPREAFGFEQAVREYTLQSFGEMADNFKSDYFNMPVHMVPTELVEKEFWRLVSSIEEDVIVEYGADISSKDFGSGFPVKDGRRKILPEEEEYALSGWNLNNMPVLEQSVLAHINVDISGMKVPWLYVGMCFSSFCWHIEDHWSYSINYLHWGEPKTWYGVPSHAAEQLEEVMRELAPELFESQPDLLHQLVTIMNPNVLMEHGVPVYRTNQCAGEFVVTFPRAYHSGFNQGYNFAEAVNFCTADWLPIGRQCVNHYRRLRRHCVFSHEELIFKMAADPECLDVGLAAMVCKELTLMTEEETRLRESVVQMGVLMSEEEVFELVPDDERQCSACRTTCFLSALTCSCNPERLVCLYHPTDLCPCPMQKKCLRYRYPLEDLPSLLYGVKVRAQSYDTWVSRVTEALSANFNHKKDLIELRVMLEDAEDRKYPENDLFRKLRDAVKEAETCASVAQLL
A Kd of 14 µM was found for B1 in this work.
